The text below walks through data of US8143366B2, “Aryl carbamate oligomers for hydrolyzable prodrugs and prodrugs comprising same” (priority 2003, dated 2012).

Like-named read-outs stand apart in the source and are kept apart here.

The term half-life denotes the time in which the quantity being followed falls by half. Low readings indicate fast loss, high ones slow loss.

A short description of series [1]: Ex vivo hydrolysis in rat plasma at 37° C. The series is classed as in vitro ADME. Conditions: Table 2 conjugates, average of three experiments ± s. d. The procedure: Experiments using rat plasma were conducted in similar fashion to the esterase hydrolysis experiments. A stock, or reference, solution of each conjugate was made that was ˜15 mg/mL in DMSO. Two hundred microliters of stock were added to 800 μL 50 mM PBS buffer. Fifty microliters of this latter solution were added to 950 μL rat plasma and placed at 37° C. in a reciprocal waterbath shaker. At the appropriate time intervals, a 50 μl, aliquot was taken, added to 100 μl, ACN, and vigorously vortexed for 1 minute. The sample was centrifuged at 10,000 rpm for 5 minutes and 50 μL, of supernatant was then injected for HPLC analysis. A calibration curve for measuring the concentration of each conjugate was made.

For series [2], the target named is T1, rabbit liver carboxylesterase (Oryctolagus cuniculus, UniProt P12337). Description: in vitro. Conditions: purified rabbit liver carboxylesterase in PBS buffer, pH 7.4.
T1 sequence (P12337 19-565): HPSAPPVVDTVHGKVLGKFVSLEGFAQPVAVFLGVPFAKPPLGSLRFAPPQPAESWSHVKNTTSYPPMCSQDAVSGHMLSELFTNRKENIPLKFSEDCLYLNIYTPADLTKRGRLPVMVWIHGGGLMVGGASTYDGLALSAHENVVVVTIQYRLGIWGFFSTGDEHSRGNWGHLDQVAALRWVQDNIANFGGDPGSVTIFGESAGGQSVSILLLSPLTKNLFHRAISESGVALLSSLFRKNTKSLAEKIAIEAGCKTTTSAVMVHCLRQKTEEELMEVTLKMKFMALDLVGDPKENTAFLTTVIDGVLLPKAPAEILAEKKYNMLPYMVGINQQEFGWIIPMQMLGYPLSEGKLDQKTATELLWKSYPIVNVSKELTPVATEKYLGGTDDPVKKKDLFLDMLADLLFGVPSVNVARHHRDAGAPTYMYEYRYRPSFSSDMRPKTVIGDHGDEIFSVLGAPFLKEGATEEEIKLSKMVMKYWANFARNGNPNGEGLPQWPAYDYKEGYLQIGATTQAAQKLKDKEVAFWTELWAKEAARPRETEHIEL
Procedure: (§1) Stock, or reference, solutions of hydrolyzable conjugates were first prepared at ˜2 mg/mL in DMSO. Working solutions of the hydrolyzable conjugates were then prepared in triplicate (working solutions A). Fifty microliters of stock conjugate were added to 5.0 mL 50 mM PBS buffer.
(§2) A stock solution of carboxylesterase was prepared by adding ˜2 mg esterase to 2.0 mL 50 mM PBS buffer. A working solution of carboxylesterase was prepared by diluting 50 uL of the stock solution with 5.0 mL 50 mM PBS buffer (working solution B).
(§3) Five hundred microliters of working solution B were then added to each working solution A (0.5 units enzyme and between 10-20 μM conjugate). The reaction mixtures were immediately vortexed and sampled for a time=0 analysis. The reaction solutions were incubated at 37° C. in a reciprocal waterbath shaker. At appropriate time intervals during incubation, 75 μL aliquots were taken and injected directly on HPLC for hydrolysis rate data. With each experiment, a new calibration curve for the particular conjugate was made.
(§4) The pseudo first-order rate constant, or “k”, is obtained from the slope of the natural log of the concentration of the conjugate versus time curve. The half-life is then calculated from k.
Series [3] has as its target T1, rabbit liver carboxylesterase. Conditions: pH 7.4.
Procedure: as §1, §2, §3, §4

In the case of `COCCOCCOCCOCCOC(=O)NC(Cc1ccc(OC(=O)N[C@@H](Cc2ccc(O)cc2)C(=O)NCC(=O)NCC(=O)N[C@@H](Cc2ccccc2)C(=O)N[C@@H](CC(C)C)C(=O)O)cc1)C(=O)OC` (some centres unmarked), in series [1], the half-life at […] was found to be 0.251 ± 0.0772 h. Further, in series [2], the half-life was 1.3 ± 0.04 h.

With `COCCOCCOCCOCCNC(=O)c1ccc(OC(=O)N[C@@H](Cc2ccc(O)cc2)C(=O)NCC(=O)NCC(=O)N[C@@H](Cc2ccccc2)C(=O)N[C@@H](CC(C)C)C(=O)O)cc1`, in series [1], the t1/2 entry was “~Immediate Hydrolysis”. This compound gave a half-life in series [2] of 0.04 ± 0.17 h.

`COCCOCCOCCOCCOc1ccc(OC(=O)N[C@@H](Cc2ccc(O)cc2)C(=O)NCC(=O)NCC(=O)N[C@@H](Cc2ccccc2)C(=O)N[C@@H](CC(C)C)C(=O)O)cc1OCCOC`: the half-life in series [1] was 0.354 ± 0.0667 h; in series [3], 2.7 ± 0.2 h.

`COCCOCCOCCOCCOc1ccc(OC(=O)N[C@@H](Cc2ccc(O)cc2)C(=O)NCC(=O)NCC(=O)N[C@@H](Cc2ccccc2)C(=O)N[C@@H](CC(C)C)C(=O)O)cc1` displayed a half-life at […] in series [1] of 0.912 ± 0.0723 h. The compound also showed a half-life in series [2] of 6.9 ± 0.1 h.

The compound `COCCOCCOCCOCCOCc1ccc(OC(=O)N[C@@H](Cc2ccc(O)cc2)C(=O)NCC(=O)NCC(=O)N[C@@H](Cc2ccccc2)C(=O)N[C@@H](CC(C)C)C(=O)O)cc1` gave a half-life at […] in series [1] of 0.027 ± 0.00733 h. This compound also had a half-life in series [2] of 1.4 ± 0.1 h.

In series [1], `CCCCCCCCCCCCOCCOCCOCCOCCOCCOCCOCCOCCOc1ccc(OC(=O)N[C@@H](Cc2ccc(O)cc2)C(=O)NCC(=O)NCC(=O)N[C@@H](Cc2ccccc2)C(=O)N[C@@H](CC(C)C)C(=O)O)cc1` showed a half-life at […] of 2.33 ± 0.0723 h. The half-life in series [2] was 10.4 ± 0.9 h.

Take `COCCOCCOCCOCCNC(=O)c1cc(OC(=O)N[C@@H](Cc2ccc(O)cc2)C(=O)NCC(=O)NCC(=O)N[C@@H](Cc2ccccc2)C(=O)N[C@@H](CC(C)C)C(=O)O)cc(C(=O)NCCOCCOCCOCCOC)c1`: in series [1], the t1/2 entry is “~Immediate Hydrolysis”. In series [2], this compound showed a half-life of 0.03 ± 0.12 h.
